Target: the molecule itself
Test: small angle scattering + dynamic light scattering (PDI); results not shown; conditions not given

B1: MamK from Magnetospirillum gryphiswaldense MSR-1, C-terminal poly-histidine-tagged (natural protein, UniProt Q6NE59 1-360, looked up)
chain: MWIDLLARERSDKMSEGEGQAKNRLFLGIDLGTSHTAVMTSRGKKFLLKSVVGYPKDVIGLKLLGRPYVVGDEAFEMRSYLDLRYPLQDGVLSEISDRDIEVARHLLTHVVKSAEPGANDEICAVIGVPARASGANKALLLKMAQEVVHTALVVSEPFMVGYGLDKLNNTIIVDIGAGTTDICALKGTVPGPEDQVTLTKAGNYLDERLQNAILERHPELQMNTNVACAVKEQFSFVGARGEAATFEFRAAGKPVRCDVTESVKIACEALMPDIIESIEILLRSFQPEYQATVLQNIVFAGGGSRIRGLAAYVKDKLRPFGNADVTCVKDPTFDGCRGALRLAEELPPQYWCQLGDVSGQ
notes: MamK, actin-like protein of M. gryphiswaldense MSR-1; mamK gene (1083 bp) cut from a MamK-pGEM construct with SalI/EcoRI and sub-cloned into pET29b; purified as a 42 KDa protein; No cleavage of the tag is described; also called His-MamK; His-tagged MamK
- stoichiometry N: 2 to 6

— publication PMC3346761, “Insight into the Assembly Properties and Functional Organisation of the Magnetotactic Bacterial Actin-like Homolog, MamK” (PLoS ONE, 2012)
